From paper PMC12628836

Legend:
Assay in all cases: ELISA; attachment factors coated at 280.0 pmol/mL in carbonate-bicarbonate buffer overnight at 4 C, blocked with 1.0% BSA; P protein (GI.1 or GII.4) 10.0 ug/mL, 1 h at 37 C; detected with anti-HuNoV monoclonal antibodies; positive when S/N >= 2.0
[1] = molecular target: recombinant C2JX39 (DNA topoisomerase 4 subunit A) (Lactobacillus rhamnosus YQ001)
[2] = molecular target: recombinant C2JVE6 (ATP-dependent zinc metalloprotease) (Lactobacillus rhamnosus YQ001)
[3] = molecular target: recombinant oyster heat shock protein 70 (oyster)
[4] = molecular target: recombinant C2K0J4 (Penicillin-binding protein, transpeptidase domain protein) (Lactobacillus rhamnosus YQ001)

Chain of GI.1 HuNoV P protein (domain or fragment) (Q83884 226-530 limits assumed): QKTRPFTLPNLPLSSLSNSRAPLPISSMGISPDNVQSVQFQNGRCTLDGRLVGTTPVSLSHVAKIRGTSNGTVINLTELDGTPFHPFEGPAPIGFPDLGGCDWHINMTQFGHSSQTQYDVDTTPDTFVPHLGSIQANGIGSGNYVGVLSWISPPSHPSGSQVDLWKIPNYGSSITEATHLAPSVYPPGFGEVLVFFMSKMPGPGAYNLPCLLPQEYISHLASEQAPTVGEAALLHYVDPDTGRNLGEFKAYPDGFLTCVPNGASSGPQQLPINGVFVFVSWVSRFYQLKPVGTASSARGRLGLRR

GI.1 HuNoV P protein (domain or fragment)
S/N ratio [1]: 16.4
S/N ratio [2]: 16.6
S/N ratio [3]: 15.5
S/N ratio [4]: 16.4

GII.4 HuNoV P protein (domain or fragment)
S/N ratio [2]: 16.7
S/N ratio [3]: 16
S/N ratio [4]: 17.3
